Here are results for two molecules from US20260234227A1 (CEPHALON, published 2026).

Assay [1] concerns the target T1, vasoactive intestinal peptide (VIP) (human).
T1 peptide: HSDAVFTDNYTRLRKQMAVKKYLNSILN
Description: cell-based or functional assay.

For assay [2], the target named is T2, pituitary adenylate cyclase-activating peptide, 38-amino acid peptide (PACAP38) (human, not fully specified).
T2 peptide: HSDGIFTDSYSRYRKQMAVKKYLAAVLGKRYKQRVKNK
Briefly: cell-based or functional assay.

Assay [3] has as its target T3, pituitary adenylate cyclase-activating peptide, 27-amino acid peptide (PACAP27) (human, not fully specified).
T3 peptide: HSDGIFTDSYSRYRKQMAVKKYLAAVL
Description: SPR; target PACAP27. The protocol:
(§1) In brief, antibody and peptide interaction was determined on a Biacore S200 (GE Healthcare) by method previously described (Andreu and Gomes 2002). An anti-Human IgG Fc capture antibody was immobilized on a CM5 biosensor chip via standard amine coupling. Anti-PACAP antibodies were injected and captured to 200 to 400 response units (RU),). PACAP38, PACAP27 and VIP were diluted in HBS-EP+buffer containing 0.1% w/v BSA (Bovostar, catalog number BSAS1.0) and 0.15 M NaCl (Sigma-Aldrich catalog number S7653), pH 7.4. Binding kinetics of antibodies were determined by injection of two-fold serial dilutions of PACAPs (12 nm to 0 nM) and VIP (1200 nM to 0 nM) in running buffer at 37° C. with a flow rate of 40 uL/min for 2 min followed by a dissociation for 10 minutes. For subsequent cycles, the chip was regenerated using 0.85% phosphoric acid. Data was analysed with the Biacore S200 Evaluation Software (ver 1.0). Association rate (kₐ) and dissociation rate (kd) constants were determined using a simple one-to-one Langmuir binding model and used to calculate the equilibrium dissociation constant (KD).
(§2) The selectivity of antibody 890C was assessed by comparing the inhibition of PACAP38-signalling to inhibition of VIP-signalling in a cyclic AMP (cAMP) measuring cell-based functional assay.

For assay [4], the target named is T2, pituitary adenylate cyclase-activating …. Briefly: SPR (Biacore), 37 C, antibody captured by anti-human IgG Fc, PACAP-38 as analyte. The protocol: as §1
For assay [5] the target is unchanged. Briefly: SPR (Biacore) off-rate ranking, antibody captured from supernatant, single injection of 33.3 nM PACAP38. The protocol: as §1, with “Binding kinetics of antibodies were determined by injection of two-fold serial dilutions of PACAPs (12 nm to 0 nM) and VIP (1200 nM to 0 nM) in running buffer at 37° C. with a flow rate of 40 uL/min for 2 min followed by a dissociation for 10 minutes.” left out
(SPR reads the build-up and loss of mass on a sensor chip optically.)

Assay [6] shares this target. Briefly: cell-based or functional assay.
For assay [7], the target named is T4, Glucagon-Like Peptide 2 (GLP-2).
T4 peptide: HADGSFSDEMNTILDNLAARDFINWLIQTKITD
Description: SPR (Biacore), captured antibody, 37.5 nM peptide injected at 37 C, relative response after 15 sec dissociation. The protocol:
(§3) The anti-PACAP antibodies, e.g., 890C, were tested against related peptides in the Secretin Glucagon family (Table 10) to determine the presence and extent of any off-target binding. Nine bioactive peptides in the glucagon superfamily are: PACAP, VIP, glucagon, Glucagon-Like Peptides (GLP-1, GLP-2), Growth Hormone Releasing Factor (GRF or GHRF), Peptide Histidine Methionine (PHM), secretin, and Gastric inhibitory polypeptide (GIP). Following capture of antibodies as described in example 4, the antibody and the peptide interaction was measured by injection of 37.5 nM of each peptide diluted in buffer at 37° C. with a flow rate of […] for 2 min followed by a dissociation phase of 4-5 min. Samples were injected in a multi-cycle manner over freshly captured anti-PACAP antibody, by regenerating the capture surfaces with two injections of 0.85% phosphoric acid at a flow rate of 30 μL/min.
as §2

For assay [8], the target named is T5, Gastric inhibitory polypeptide (GIP).
T5 peptide: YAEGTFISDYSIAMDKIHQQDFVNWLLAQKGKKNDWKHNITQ
The assay is described as above. As for the experimental part:
as §3, §2

The target of a further assay is Glucagon. The description is as above. The protocol: as §3, §2
The target of assay [9] is T6, Growth Hormone Releasing Factor (GRF or GHRF).
T6 construct: the listing entry is to be used
T6 peptide: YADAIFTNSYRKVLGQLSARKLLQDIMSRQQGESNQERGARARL
Described as above. As for the experimental part:
as §3, §2

The next assay concerns the target T7, Secretin.
T7 construct: the listing entry is to be used
T7 peptide: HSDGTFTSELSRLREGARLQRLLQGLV
The assay is described as above. The protocol: as §3, §2

The target in assay [10] is T8, Glucagon-Like Peptide 1 (GLP-1).
T8 peptide: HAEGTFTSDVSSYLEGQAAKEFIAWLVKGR
The description is as above. The protocol:
as §3, §2

Assay [11] has as its target T9, Peptide Histidine Methionine (PHM).
T9 peptide: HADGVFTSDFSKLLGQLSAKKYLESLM
Described as above. The protocol: as §3, §2

The target of assay [12] is T2, pituitary adenylate cyclase-activating …. Description: cell-based or functional assay.
The target is the same in assay [13]. Briefly: SPR; target PACAP38. As for the experimental part:
as §1, §2

Assay [14] addresses T1, vasoactive intestinal peptide (VIP). Briefly: SPR; target VIP. The protocol: as §1, §2
The target in assay [15] is T2, pituitary adenylate cyclase-activating …. Description: cell-based or functional assay.
Assay [16] has as its target T3, pituitary adenylate cyclase-activating …. Description: SPR (Biacore S200), 37 C, captured antibody, two-fold dilutions of peptide, 1:1 Langmuir model.
In assay [17] the target is T2, pituitary adenylate cyclase-activating …. The description is as above.
The target in assay [18] is T1, vasoactive intestinal peptide (VIP). Briefly: SPR (Biacore S200), 37 C, captured antibody, steady state binding.

Glucagon, sequence (peptide, as listed by the source): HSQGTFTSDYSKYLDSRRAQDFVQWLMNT

B1: anti-PACAP antibody 890C (antibody, human IgG4 S228P, kappa, V domains shown)
VH: EVQLVQSGAEVKKPGSSVKVSCKASGGTFSDVYMHWVRQAPGQGLEWMGLIYPIFADTRYAQKFQGRVTITADESTSTAYMELSSLRSEDTAVYYCAIDQDGSFAYWGQGTLVTVSS
VL: DIVMTQSPDSLAVSLGERATINCKSSQSLLDADGKTYLNWLQQKPGQPPKRLIYWASTRESGVPDRFSGSGSGTDFTLTISSLQAEDVAVYYCWQGTWFDLTFGGGTKVEIKR
notes: LC S(27E)A, G29, L50W, V51A, K53T, L54R, D55E, H93W, P95D
By Kd is commonly meant the constant that tells how readily two partners part at equilibrium. A low value points to a tighter complex. The koff is the rate constant with which the complex falls apart. A word on the kon: it is the second-order rate constant of association. Higher therefore signals fast association. With B1, the “IC50 (read off the curve), VIP-induced cAMP production in CHO-K1 cells expressing VPAC1” value in assay [1] was roughly 600 nM. Also, the “fold shift of the VIP/VPAC1 inhibition curve relative to the PACAP/PAC1 inhibition curve (selectivity)” value in assay [1] worked out at 1400 fold. Also, in assay [2], the “IC50 (read off the curve), PACAP38-induced cAMP production in CHO-K1 cells expressing PAC1” value is roughly 0.4 nM. For the same molecule, the Kd in assay [3] came to 0.218 nM; in [4], 0.0284 nM; in assay [5] it was 0.0284 nM; in [13] it was 0.054 nM; in assay [14], 390 nM. The dissociation rate constant (koff) in assay [4] and in assay [5] was 0.000671 s⁻¹ each time. Moreover, the kon in assay [4] and in assay [5] was 2.36e+07 M⁻¹ s⁻¹ throughout. Further, the “IC50 (nM), PACAP-induced cAMP accumulation in CHO-K1 receptor cell lines (cAMP-Glo)” value in assay [6] stood at 0.32 nM. Besides, the binding result (in [7]; in assay [8]; in the assay with Glucagon; in assay [9]; with Secretin; in [10]) was “no binding (tested: 37.5 nM)” each time. Moreover, the binding result in assay [11] was “no binding (tested: 37.5 nM)”. For the same molecule, the “IC50 (nM), inhibition of PACAP-induced cAMP accumulation” value in assay [12] was 0.32 nM. The “selectivity, inhibition of PACAP38-induced cAMP production (PAC1 cells) versus VIP-induced cAMP production (VPAC1 cells)” value in [15] was greater than 1000 fold.

B2: anti-PACAP antibody 605C (antibody, V domains shown)
VH: EVQLVQSGAEVKKPGSSVKVSCKASGGTFSDSYMHWVRQAPGQGLEWMGLIYPIFADTRYAQKFQGRVTITADESTSTAYMELSSLRSEDTAVYYCAIDQDGSFAYWGQGTLVTVSS
VL: DIVMTQSPDSLAVSLGERATINCKSSQSLLDADGKTYLNWLQQKPGQPPKRLIYWASTRESGVPDRFSGSGSGTDFTLTISSLQAEDVAVYYCWQGTWFDLTFGGGTKVEIK
Turning to B2, the Kd in assay [4] is 0.017 nM; in [16], 0.154 nM; in assay [17], 0.0328 nM; in assay [5], 0.017 nM; in [18], 225 nM. The koff in assay [4] was found to be 0.000566 s⁻¹; in assay [16], 0.00101 s⁻¹; in [17], 0.000565 s⁻¹; in assay [5], 0.000566 s⁻¹. The kon was found to be 3.33e+07 M⁻¹ s⁻¹ in assay [4], 6.58e+06 M⁻¹ s⁻¹ in [16], 1.72e+07 M⁻¹ s⁻¹ in assay [17] and 3.33e+07 M⁻¹ s⁻¹ in assay [5]. The “IC50 (nM), inhibition of PACAP-induced cAMP accumulation” value in assay [12] came to 0.15 nM.
